From PMC7661550, “A ‘Split-Gene’ Transketolase From the Hyper-Thermophilic Bacterium Carboxydothermus hydrogenoformans: Structure and Biochemical Characterization” (Frontiers in Microbiology, 2020)

B1: ChTK-F (Carboxydothermus hydrogenoformans Z-2901) (protein)
chain 1: MQDEILNLKLIANQLRQHVVKMVGEANSGHPGGSLSAADILAVLFFKEMRIDPANPKWQDRDRFVLSKGHASPVLYAALAERGFFPKEWLSQFRKINSPLQGHPDMKKVPGVEMSTGSLGQGFSTAVGMALGLKLDRSPARVYVLLGDGEIQEGIVWEAAMAAAHYKLNNLTAILDYNGLQIDGPVQEVMNPEPVADKWRSFGFKVITVDGHNIPEIINAIDAARLHLEGPTIIIAKTVKGKGVSFMENRVEWHGSAPKPEQVAEALSELQVGREKLWEE
chain 2: MGGIATREAYGKALVELGQENPKIVVLDADLSKSTKTSDFAKAFPERFFNMGIAEQNLMGVAAGLSTVGKIPFASTFAVFAAGRAFEIIRNSICYPKLNVKIAATHAGLTVGEDGASHQAIEDLALMRVLPNMQVFVPADAAQTRAIVKKAAEIEGPVYIRLGRSGVPEVFSPDIRFEPGRGTVLKEGKDVTIVALGIMTAKALEAAKMLEAEGIAARVVDMASLKPIDRELLVESARLTGAVVTAEEHSVIGGLGSAVAEVLSEEYPIPVVKVGVNDVFGESGTPQALLEKYGLTARDVVAAVQKALTLKR
notes: two split-gene subunits (alpha ChTK-N, PP domain)
B2: ChTK-C, C-terminal 'split-gene' transketolase polypeptide (Pyr and C-terminal domains) of Carboxydothermus hydrogenoformans (natural protein, Carboxydothermus hydrogenoformans Z-2901)
chain: B1 chain 2
notes: Pyr domain residues 1-162 and C-terminal domain residues 164-312; calculated mass of the His-tagged protein 33.2 kDa; chain D of PDB 6YAK, all chains of PDB 6YAJ; The gene was cloned into the LIC site of pLATE51; By gel filtration the free protein elutes as a tetramer; two copies stand in the α2β2 heterotetramer ChTK-F; also called β subunit of ChTK-F (α2β2); ChTK β4; source: E. coli BL21 DE3*, …
B3: ChTK-N, N-terminal 'split-gene' transketolase polypeptide (PP domain) of Carboxydothermus hydrogenoformans (natural protein, Carboxydothermus hydrogenoformans Z-2901)
chain: B1 chain 1
notes: forms the PP domain; calculated mass of the His-tagged protein 31.0 kDa; chain A of PDB 6YAK; The gene was cloned into the LIC site of pLATE51; By gel filtration the free protein elutes as a dimer; two copies stand in the α2β2 heterotetramer ChTK-F; also called α subunit of ChTK-F (α2β2); source: E. coli BL21 DE3*, purified (heat treatment at 50°C, HisTrap/Ni-NTA, Superdex 200 gel filtration)

What was measured:
[1] = substrate: O=CCO; assay: purified protein; type: biochemical, Carboxydothermus hydrogenoformans; conditions: hydroxypyruvate 100 mM as ketol donor, TPP, CaCl2, 10 mM HEPES pH 7.2, 0.1 M NaCl, room temperature
[2] = target: the molecule itself; assay: SEC; each protein alone on a calibrated Superdex 200 HiLoad 16/60 column, 10 mM HEPES, 0.1 M NaCl, pH 7.2; apparent molecular mass
[3] = target: the molecule itself; assay: crystal structure; reconstituted ChTK-F α2β2 with TPP and Ca2+, 2.1 M DL-malic acid pH 7.0, space group I222, 1.4 Å (PDB 6YAK); also a PEG 1500 crystal form at 2.1 Å

Protein	Km [1]	stoichiometry N [2]	stoichiometry N [3]
B1	41 ± 4 mM		
B2		4	2
B3		2	
